How the values were obtained:
[1] = biological target: T1, mouse GPNMB endogenously expressed on B16F10 cells (mouse, UniProt Q99P91 23-574); test: FACS, B16F10 cells
T1 construct: whole, on cells; also called moGPNMB
T1 sequence (looked up): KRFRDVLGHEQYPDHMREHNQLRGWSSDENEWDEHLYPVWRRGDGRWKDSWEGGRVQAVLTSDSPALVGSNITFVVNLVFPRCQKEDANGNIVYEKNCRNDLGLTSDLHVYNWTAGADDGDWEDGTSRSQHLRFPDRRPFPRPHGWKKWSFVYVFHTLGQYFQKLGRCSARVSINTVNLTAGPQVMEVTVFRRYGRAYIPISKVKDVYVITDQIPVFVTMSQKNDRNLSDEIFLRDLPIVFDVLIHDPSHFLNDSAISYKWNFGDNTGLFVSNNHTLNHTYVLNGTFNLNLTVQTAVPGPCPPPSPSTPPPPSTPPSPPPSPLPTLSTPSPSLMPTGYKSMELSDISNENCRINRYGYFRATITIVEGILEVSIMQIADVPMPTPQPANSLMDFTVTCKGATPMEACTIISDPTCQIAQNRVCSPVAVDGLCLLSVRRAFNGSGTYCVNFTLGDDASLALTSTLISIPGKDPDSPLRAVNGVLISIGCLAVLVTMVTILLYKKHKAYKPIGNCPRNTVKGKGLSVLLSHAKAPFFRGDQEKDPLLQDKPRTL
In short: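 Flow cytometry MFI after two-step staining on ice: anti-GPNMB antibody for 30 min, then APC-conjugated anti-human IgG (1 μg/ml) for 30 min. Buffer was PBS with 2% FBS and 2 mM EDTA; 100,000 cells per well.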

[2] = biological target: T1, mouse GPNMB endogenously expressed on …; test: FACS on B16F10 mouse melanoma cells (endogenous mouse GPNMB); single antibody concentration (not given); APC anti-human IgG secondary; MFI as fold over background
Description: Recombinant anti-GPNMB antibodies of the present disclosure were examined for their ability to bind human and/or mouse GPNMB expressed on Freestyle293-huGPNMB+ or B16F10 cells, respectively. B16F10 cells are a murine melanoma cell line from a C57BL/6J mouse that endogenously express high levels of mouse GPNMB. The antibodies were also tested for their ability to bind to a human macrophage cell line (U937 cells) engineered to express human GPNMB. Cells were harvested, plated at 100,000 cells/well in a 96-well round bottom plate, and incubated in 100 μl FACS buffer (PBS containing 2% FBS, 2 mM EDTA) containing anti-GPNMB monoclonal antibodies of the present disclosure for 30 minutes on ice. Cells were then washed and incubated in 100 ul FACS buffer containing 1 μg/ml APC-conjugated anti-human IgG secondary antibody for 30 minutes in ice. Cells were washed twice in cold FACS buffer and acquired on a BD FACS Canto. Data analysis and calculation of MFI values was performed with FlowJo (TreeStar) software version 10.0.7. […]

[3] = biological target: T2, full-length untagged human GPNMB expressed on cells (human, UniProt Q14956 23-572); test: cell-based or functional assay
T2 sequence: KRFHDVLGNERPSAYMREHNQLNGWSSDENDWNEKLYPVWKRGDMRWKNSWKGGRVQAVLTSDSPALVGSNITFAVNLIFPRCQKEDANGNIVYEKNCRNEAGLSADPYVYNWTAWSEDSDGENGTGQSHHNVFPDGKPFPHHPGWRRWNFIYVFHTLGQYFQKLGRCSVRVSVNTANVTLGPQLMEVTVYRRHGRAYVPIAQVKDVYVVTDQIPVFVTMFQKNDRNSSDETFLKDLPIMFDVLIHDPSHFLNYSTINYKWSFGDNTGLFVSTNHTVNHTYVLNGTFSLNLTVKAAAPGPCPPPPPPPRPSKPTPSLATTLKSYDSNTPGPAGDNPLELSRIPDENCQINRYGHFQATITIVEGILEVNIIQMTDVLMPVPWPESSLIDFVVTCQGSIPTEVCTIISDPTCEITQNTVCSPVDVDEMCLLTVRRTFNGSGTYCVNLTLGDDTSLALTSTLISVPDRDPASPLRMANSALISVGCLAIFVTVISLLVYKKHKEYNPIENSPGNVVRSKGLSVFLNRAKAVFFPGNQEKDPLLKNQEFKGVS

[4] = biological target: T3, soluble human GPNMB (recombinant extracellular domain) (human, UniProt Q14956 23-498); test: SPR Carterra, Ab immobilized
T3 construct: also called huGPNMB; recombinant human GPNMB extracellular domain; not shown: C-terminal polyhistidine or Avi-His tag
T3 sequence: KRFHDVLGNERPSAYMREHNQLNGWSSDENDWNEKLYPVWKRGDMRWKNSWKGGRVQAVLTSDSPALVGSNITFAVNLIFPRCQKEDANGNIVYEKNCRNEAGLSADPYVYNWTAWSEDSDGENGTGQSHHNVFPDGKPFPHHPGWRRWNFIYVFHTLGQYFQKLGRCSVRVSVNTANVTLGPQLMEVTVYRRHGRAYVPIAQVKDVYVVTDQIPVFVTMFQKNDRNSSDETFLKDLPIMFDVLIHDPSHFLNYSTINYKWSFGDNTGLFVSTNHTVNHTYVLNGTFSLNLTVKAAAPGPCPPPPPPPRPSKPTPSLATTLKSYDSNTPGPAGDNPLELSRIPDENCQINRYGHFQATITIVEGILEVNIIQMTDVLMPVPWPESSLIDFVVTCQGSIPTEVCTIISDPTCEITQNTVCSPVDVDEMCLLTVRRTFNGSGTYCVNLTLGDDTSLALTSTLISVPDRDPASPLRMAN
In short: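 Analyte series of GPNMB extracellular domain (2.5, 7.4, 22, 67, 200, 600 nM) flowed in ascending order, no regeneration, over IgG1 antibodies EDC/NHS-immobilized on an HC200M array. HBS-EP+ plus 0.5 mg/ml BSA as running buffer, two blanks per series. Affinity estimated via high-throughput kinetic fitting.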

Binder	MFI fold over background [1]	binding result [2]	CD40 (FoB) [3]	CD80 (FoB) [3]	GCase (FoB) [3]	PDL1 (FoB) [3]	Kd [4]	koff [4]	kon [4]
anti-GPNMB antibody GPN-03 (antibody, human IgG1, V domains shown, chimeric) VH: QVQLQQSGPELVKPGASVKLSCKASGYTFTNYYMYWVKQRPGQGLEWIGEINPRNGGTNFNEKFKSKATLTVDKSSSTAYMQLSSLTFEDSAVYYCTTGLAYWGQGTLVTVSA VL: DVVMTQTPLSLPVSLGDQASISCRSSQSLVHSDGNTYLHWYLQKPGQSPKLLIYKVSTRFSGVPDRFSGSGSGTDFTLKISRVEAEDLGVYFCSQSTHVPWTFGGGTKLEIK	1.1 fold	no binding	1.45 FoB	1.4 FoB	1.47 FoB	1.32 FoB	29.6 nM	0.0019 s⁻¹	100000 M⁻¹ s⁻¹
anti-GPNMB antibody GPN-06 (antibody, human IgG1, V domains shown, chimeric) VH: QVQLQQSGAELVKPGASVKLSCKASGYTFTNYYMYWVKQRPGQGLEWIGEINTRNGGTNFNEKFKSKATLTVDKSSSTAYMQLSSLTSEDSAVYYCTTGFAYWGQGTLVTVSA VL: DIQMTQSPASLSASVGETVTITCRASENIYSYLVWYQQNQGKSPQLLVYNAKTLAEGVPSRFSGSGSGTQFSLKINSLQPEDFGTYYCQHHYGTPFTFGSGTKLEIK	1 fold	no binding	1.44 FoB	1.38 FoB	1.58 FoB	1.61 FoB	73.9 nM	0.0032 s⁻¹	54000 M⁻¹ s⁻¹
anti-GPNMB antibody GPN-07 (antibody, human IgG1, V domains shown, chimeric) VH: QVQLQQSGAEQVKPGASVKLSCKASGYTFTSYYMYWVKQRPGQGLEWIGEINPSNGGTYFNEKFKSKATLTVDKSSSTAYMHLSSLTSEDSAVYYCTRGGTYYAYWGQGTLVTVSA VL: DIQMTQSPSSLSASLGERVSLTCRASQEMSGHLSWLQQKPDGTIKRLIYAASTLDSGVPKRFSGSRSGSDYSLTISSLESEDFADYYCLQYASYPYTFGGGTKLEIK	1 fold	no binding	1.39 FoB	1.29 FoB	2.13 FoB	1.67 FoB	16.6 nM	0.00029 s⁻¹	19000 M⁻¹ s⁻¹

Results, then the binder that gave them:

MFI fold over background [1]	binding result [2]	CD40 (FoB) [3]	CD80 (FoB) [3]	GCase (FoB) [3]	PDL1 (FoB) [3]	Kd [4]	koff [4]	kon [4]	Binder
1.1 fold	no binding	1.52 FoB	1.36 FoB	1.76 FoB	1.56 FoB	0.4 nM	6.3e-05 s⁻¹	190000 M⁻¹ s⁻¹	anti-GPNMB antibody GPN-34 (antibody, human IgG1, V domains shown, chimeric) VH: EVKLVESGGGLVQPGRSLKLSCAASGFNFYDYWMGWVRQAPGKGLEWIGEINKDSRTINYTPFLKDRFTISRDNAQNTLYLQMSKLGSEDTAIYYCAREGRVPFDYWGQGVMVTVSS VL: DIQMTQSPSSMSVSLGDTVTIPCRASQDVGSYVNWFQQKPGKSPRHMIYRATNLADGVPSRFSGSRSGADYSLTISSLESEDVADYHCQQYAEYPLTFGSGTKLEIK
1 fold	no binding	1.35 FoB	1.29 FoB	1.18 FoB	1.59 FoB	36 nM	0.0014 s⁻¹	40000 M⁻¹ s⁻¹	anti-GPNMB antibody GPN-08 (antibody, human IgG1, V domains shown, chimeric) VH: QVQLQQPGAELVKPGASVKLSCRASGYTFTSYWLHWVKQRPGQGLEWIGEINPSDGRTNYIEKVKTKATLTVDKSSSTAYMQLSSLTSEDSAVYYCARSGGNYAWFAYWGQGTLVTVSA VL: DIVMTQSHKFMSTSVGDRVSITCKASQDVSPSVAWYQQRPGQSPKLLIYSASYRYTGVPDRFTGSGSGTDFTFTISSVQAEDLAVYYCQQHYSIPLTFGAGTKLELK
0.8 fold	no binding	–	–	1.01 FoB	–	1 nM	0.00011 s⁻¹	110000 M⁻¹ s⁻¹	anti-GPNMB antibody GPN-37 (antibody, human IgG1, V domains shown, chimeric) VH: EVQLVESGGGLVQPGRSLKLSCAASGFTFSSKSGMAWVRQAPTKGLEWVASISNGGGDTYYRDSVKGRFTISRDNAKNTQYLQMDSLRPEDTATYYCARHRDYGYDAYFDYWGQGVMVTVSS VL: DIQMTQSPASLSASLGETVTIECLASEDIYSSLAWYQQKPGKSPQLLIYDASSLQDGVPSRFSGSESGTQYSLEINSLQSEDAATYFCQQHHDYPYTFGAGTKLELK
1 fold	no binding	1.49 FoB	1.19 FoB	1.26 FoB	1.5 FoB	9 nM	0.00011 s⁻¹	12000 M⁻¹ s⁻¹	anti-GPNMB antibody GPN-09 (antibody, human IgG1, V domains shown, chimeric) VH: QVQLQQSGAELVKPGASVKLSCKASGYTFTSYYIYWVKQRPGQGLEWIGEINPSNGGTYFNEKFKNKATLTVDKSSSTAYMQLSSLTSEDSAVYYCTRGGNYYAYWGQGTLVTVSA VL: DIQMTQSPSSLSASLGERVSLTCRASQEISGHLGWLQQKPDGTIKRLIYAALTLDSGVPKRFSGSRSGSDYSLTISSLESEDFADYYCLQYASYPYTFGGGTKLEIK

Source: patent US20250270343A1 (Alector, published 2025)
